Key:
[1] = tested on: Wildtype, non-transformed Arabidopsis thaliana c.v. Columbia; assay: Glyphosate response of non-transformed control Arabidopsis; type: in vivo; settings: WT (non-transformed control), 14 days after application
Protocol: (§1) The Arabidopsis T1 transformants (from transformation with pDAB114286 or pDAB114287) were first selected from the background of untransformed seed using a glufosinate selection scheme. Three flats or 50,000 seed were analyzed for each T1 construct. The selected T1 plants were molecularly characterized (as described above) and events with a range of copy number were sprayed with various rates of commercial glyphosate.
(§2) Transgenic T1 Arabidopsis plants containing the dgt-28 transgene were sprayed with differing rates of glyphosate. Elevated rates were applied in this study to determine the relative levels of resistance (420, 840, 1,680 or 3,360 g ae/ha). The typical 1× field usage rate of glyphosate is 1120 g ae/ha. The response of these plants is presented in terms of % visual injury 2 weeks after treatment (WAT). The T1 Arabidopsis plants that were used in this study were of variable copy number for the dgt-28 transgene. The low copy dgt-28 T1 Arabidopsis plants were self-pollinated and used to produce T2 plants.
(§3) An arithmetic mean and standard deviation is presented for each construct used for Arabidopsis transformation. The range in individual response is also indicated in the last column for each rate and transformation. Wildtype, non-transformed Arabidopsis thaliana c.v. Columbia served as a glyphosate sensitive control.

[2] = tested on: dgt-28 transformed T1 Arabidopsis; assay: Glyphosate tolerance of dgt-28 transformed T1 Arabidopsis; type: in vivo, Arabidopsis thaliana; settings: 14 days after application
Protocol: as §1, §2, §3

[3] = 420 g ae/ha glyphosate postemergence
[4] = 840 g ae/ha glyphosate postemergence
[5] = 1680 g ae/ha glyphosate postemergence
[6] = 3360 g ae/ha glyphosate postemergence

| Molecule | % Injury Analysis Ave [2, 3] [%] | % Injury Analysis Range (%) [2, 3] | % Injury Range (No. Replicates) 20-40% [2, 3] | % Injury Range (No. Replicates) <20% [2, 3] | % Injury Range (No. Replicates) >40% [2, 3] | % Injury Analysis Ave [2, 4] [%] | % Injury Analysis Range (%) [2, 4] | % Injury Range (No. Replicates) 20-40% [2, 4] | % Injury Range (No. Replicates) <20% [2, 4] | % Injury Range (No. Replicates) >40% [2, 4] | % Injury Analysis Ave [2, 5] [%] | % Injury Analysis Range (%) [2, 5] | % Injury Range (No. Replicates) 20-40% [2, 5] | % Injury Range (No. Replicates) <20% [2, 5] | % Injury Range (No. Replicates) >40% [2, 5] | % Injury Analysis Ave [2, 6] [%] | % Injury Analysis Range (%) [2, 6] | % Injury Range (No. Replicates) 20-40% [2, 6] | % Injury Range (No. Replicates) <20% [2, 6] | % Injury Range (No. Replicates) >40% [2, 6] | other results |
| --- | --- | --- | --- | --- | --- | --- | --- | --- | --- | --- | --- | --- | --- | --- | --- | --- | --- | --- | --- | --- | --- |
| O=C(O)CNCP(=O)(O)O [glyphosate] | – | – | – | – | – | – | – | – | – | – | – | – | – | – | – | – | – | – | – | – | % Injury Analysis Ave ([1]; 420 g ae/ha postemergence): 100.0%; % Injury Analysis Range (%) ([1]; 420 g ae/ha postemergence): 100%; % Injury Range (No. Replicates) 20-40% ([1]; 420 g ae/ha postemergence): 0; % Injury Range (No. Replicates) <20% ([1]; 420 g ae/ha postemergence): 0; % Injury Range (No. Replicates) >40% ([1]; 420 g ae/ha postemergence): 4; % Injury Analysis Ave ([1]; 840 g ae/ha postemergence): 100.0%; % Injury Analysis Range (%) ([1]; 840 g ae/ha postemergence): 100%; % Injury Range (No. Replicates) 20-40% ([1]; 840 g ae/ha postemergence): 0; % Injury Range (No. Replicates) <20% ([1]; 840 g ae/ha postemergence): 0; % Injury Range (No. Replicates) >40% ([1]; 840 g ae/ha postemergence): 4; % Injury Analysis Ave ([1]; 1680 g ae/ha postemergence): 100.0%; % Injury Analysis Range (%) ([1]; 1680 g ae/ha postemergence): 100%; % Injury Range (No. Replicates) 20-40% ([1]; 1680 g ae/ha postemergence): 0; % Injury Range (No. Replicates) <20% ([1]; 1680 g ae/ha postemergence): 0; % Injury Range (No. Replicates) >40% ([1]; 1680 g ae/ha postemergence): 4; % Injury Analysis Ave ([1]; 3360 g ae/ha postemergence): 100.0%; % Injury Analysis Range (%) ([1]; 3360 g ae/ha postemergence): 100%; % Injury Range (No. Replicates) 20-40% ([1]; 3360 g ae/ha postemergence): 0; % Injury Range (No. Replicates) <20% ([1]; 3360 g ae/ha postemergence): 0; % Injury Range (No. Replicates) >40% ([1]; 3360 g ae/ha postemergence): 4 |
| TraP27::dgt-28: TraP27-dgt28 fusion gene (SEQ ID NO:28) in construct pDAB114287, expressed in T1 Arabidopsis (protein, Trap27 DGT28 fusion coding sequence) MATFTRVCHTARKSFVSLSNSQANSPVSVRFLSLPMPAARPAVKSGVRLWGCRLSFKVSASARGMPALSLPGSKSITARALFLAAAADGVTTLVRPLRSDDTEGFAEGLVRLGYRVGRTPDTWQVDGRPQGPAVAEADVYCRDGATTARFLPTLAAAGHGTYRFDASPQMRRRPLLPLSRALRDLGVDLRHEEAEGHHPLTVRAAGVEGGEVTLDAGQSSQYLTALLLLGPLTRQGLRIRVTDLVSAPYVEITLAMMRAFGVEVAREGDVFVVPPGGYRATTYAIEPDASTASYFFAAAALTPGAEVTVPGLGTGALQGDLGFVDVLRRMGAEVSVGADATTVRGTGELRGLTANMRDISDTMPTLAAIAPFASAPVRIEDVANTRVKECDRLEACAENLRRLGVRVATGPDWIEIHPGPATGAQVTSYGDHRIVMSFAVTGLRVPGISFDDPGCVRKTFPGFHEAFAELRRGIGS | 19.0 | 10-30% | 1 | 3 | 0 | 15.8 | 10-20% | 1 | 3 | 0 | 18.8 | 15-20% | 3 | 1 | 0 | 25.0 | 25% | 4 | 0 | 0 | – |
| TraP26::dgt-28: TraP26-dgt28 fusion gene (SEQ ID NO:27) in construct pDAB114286, expressed in T1 Arabidopsis (protein, Trap26 DGT28 fusion coding sequence) MAQVSMIPNAIQAPCSISLSKSQAGKSVRKVSLKPNQHAAWGLRRSGMRVGNPEVVVSASARGMPALSLPGSKSITARALFLAAAADGVTTLVRPLRSDDTEGFAEGLVRLGYRVGRTPDTWQVDGRPQGPAVAEADVYCRDGATTARFLPTLAAAGHGTYRFDASPQMRRRPLLPLSRALRDLGVDLRHEEAEGHHPLTVRAAGVEGGEVTLDAGQSSQYLTALLLLGPLTRQGLRIRVTDLVSAPYVEITLAMMRAFGVEVAREGDVFVVPPGGYRATTYAIEPDASTASYFFAAAALTPGAEVTVPGLGTGALQGDLGFVDVLRRMGAEVSVGADATTVRGTGELRGLTANMRDISDTMPTLAAIAPFASAPVRIEDVANTRVKECDRLEACAENLRRLGVRVATGPDWIEIHPGPATGAQVTSYGDHRIVMSFAVTGLRVPGISFDDPGCVRKTFPGFHEAFAELRRGIGS | 0.0 | 0% | 0 | 4 | 0 | 0.0 | 0% | 0 | 4 | 0 | 10.0 | 10% | 0 | 4 | 0 | 16.3 | 15-20% | 1 | 3 | 0 | – |
